Results published in patent US20100081799A1, “Chelating Agent” (priority 2006, published 2010).

Assays:
in vivo = assay: in vivo; design: species or system mice; conditions: female, nude, mouse, iv, 38 uCi, total radioactivity
Method: (§1) Animal experiments. Due to its high sst2-somatostatin receptor expression, the rat pancreatic tumor cell line AR42J was used as a tumor model.^55 To establish tumor growth, cells were detached from the surface of the culture flasks using 1 mM EDTA in PBS, centrifuged and re-suspended in serum-free culture medium (RPMI-1640, Biochrom, Berlin, Germany). Concentration of the cell suspension was 3.7×10^6 cells/100 μL serum. Nude mice (female, 6-8 weeks) were injected 100 μL of the cell suspension subcutaneously into the flank.
(§2) For biodistribution studies, mice were intravenously injected 38 μCi [^68Ga]19 (corresponding to 0.15 μg of peptide) in 100 μL PBS into the tail vein. Non-specific tissue accumulation of the radioligand was determined by coinjection of an excess of cold competitor (20 μg Tyr^3-octreotide/mouse). At different time points after radioligand injection (30 and 60 min p.i.) mice (n=5 per time point; n=3 for blocking study at 60 min p.i.) were sacrificed and dissected. The organs of interest were removed, weighed and counted in a […] (Wallach, Turku, Finland). Data are expressed as percent injected dose per gram tissue (% iD/g).

[1] = system: AR42J tumor bearing nude mice; assay: in vivo; conditions: mouse
Method: as §1, §2

[2] = blood concentration of the radioligand

CC(=NOCC(=O)N[C@H](Cc1ccccc1)C(=O)N[C@H]1CSSC[C@@H](C(=O)N[C@H](C(=O)O)[C@@H](C)O)NC(=O)[C@H]([C@@H](C)O)NC(=O)[C@H](CCCCN)NC(=O)[C@@H](Cc2c[nH]c3ccccc23)NC(=O)[C@H](Cc2ccc(O)cc2)NC1=O)c1ccc(C(C(=O)O)N2CCN(CC(=O)O)CCN(CC(=O)O)CCN(CC(=O)O)CC2)cc1 (stereo partly shown) [[^68Ga]19, metal not drawn]
tissue uptake at 0.5 h (in vivo; [2]): 2.37 ± 0.35 %ID/g
tissue uptake at 1 h (in vivo; [2]): 1.71 ± 0.17 %ID/g
tissue uptake at 0.5 h (in vivo; kidney accumulation): 20 ± 2.4 %ID/g
tissue uptake at 1 h (in vivo; kidney accumulation): 11.9 ± 1.9 %ID/g
tissue uptake at 0.5 h (in vivo; tumor accumulation): 7.73 ± 1.52 %ID/g
tissue uptake at 1 h (in vivo; tumor accumulation): 7.46 ± 1.3 %ID/g
tumor/organ ratios (change) [1]: increasing tumor/organ ratios
